Measured values taken from patent US20200040103A1 (Genentech, published 2020).
Residue numbers refer to the chain shown, from its start.

Tests used:
[1] = target: human KLK7 (human, UniProt P49862 30-253, limits assumed); assay: column 6: KLK7 activity assay, 5 nM KLK7
Method: KLK7 selectivity assay was performed at room temperature in a 384-well plate (black, low-volume round bottom, Corning #4514) with a final reaction volume of 15 μL. Inhibitor samples were diluted to 3× final concentration in assay buffer (75 mM Tris, pH 8.0, 150 mM NaCl, 0.01% TWEEN® 20). Reactions lacking inhibitor and reactions lacking enzyme were used as 100% and 0% activity controls, respectively. Inhibitor or control samples (5 μL) were added to the plate followed by 5 μL KLK7 (Genentech) in assay buffer at a final concentration of 5 nM. After 30 min, 5 μL of Suc-Leu-Leu-Val-Tyr-AMC (Bachem I-1395, 25 mM stock solution in water) in assay buffer was added at a final concentration of 100 μM. […] Reaction rates (expressed as RFU/s) were calculated by linear regression in the range 2040-4488 seconds. Reaction rates were normalized to the values of the 0% and 100% activity controls and fit with a 4-parameter equation to calculate IC₅₀ values. […]

[2] = target: human KLK1 (human, UniProt P06870 25-262, limits assumed); assay: column 7: KLK1 activity assay, 3 nM KLK1
[3] = target: human KLK4 (human, UniProt Q9Y5K2 31-254, limits assumed); assay: column 8: KLK4 activity assay, 2 nM KLK4
Method: (§1) KLK4 selectivity assay was performed at room temperature in a 384-well plate (black, low-volume round bottom, Corning #4514) with a final reaction volume of 15 μL. Inhibitor samples were diluted to 3× final concentration in assay buffer (75 mM Tris, pH 8.0, 150 mM NaCl, 0.01% TWEEN® 20). Reactions lacking inhibitor and reactions lacking enzyme were used as 100% and 0% activity controls, respectively. Inhibitor or control samples (5 μL) were added to the plate followed by 5 μL KLK4 (R&D Systems, 1719-SE, Lot MSY0116011, activated according to R&D systems protocol) in assay buffer at a final concentration of 2 nM. After 30 minutes, 5 μL of Boc-Val-Pro-Arg-AMC (Bachem I-1120, 31.3 mM stock solution in water) in assay buffer was added at a final concentration of 50 μM. […] Reaction rates (expressed as RFU/s) were calculated by linear regression in the range 510-3570 seconds. Reaction rates were normalized to the values of the 0% and 100% activity controls and fit with a 4-parameter equation to calculate IC₅₀ values. In the case of bivalent inhibitors, the raw IC₅₀ value was multiplied by two.
In FIG. 8, the ability of Spink9.SRE.Fc, mAb1108 or 12 selected anti-KLK5 antibodies to inhibit the proteolysis of the substrate, Boc-VPR-AMC, by human KLK4 was assessed using an enzymatic assay. […] The results were expressed as a percentage of maximum KLK4 activity (% control).

[4] = target: T1, trypsin isolated from bovine pancreas (bovine, UniProt P00760 24-246); assay: column 9: trypsin activity assay, 0.25 nM trypsin
T1 construct: also called bovine trypsin
Method: 0.25 nM trypsin isolated from bovine pancreas and 0.19-100 nM anti-KLK5 inhibitors were pre-incubated for 30 minutes prior to addition of 50 μM Boc-VPR-AMC. […] The results for the KLK5 inhibitors are depicted as follows: FIG. 9A: Spink9.SRE.Fc, FIG. 9B: mAb1108, FIG. 9C: 3-3F5, FIG. 9D: 10C8, FIG. 9E: 9B6, FIG. 9F: 9F2, FIG. 9G: 9H3, FIG. 9H: 9H5, FIG. 9I: 8B7, FIG. 9J: 2B11, FIG. 9K: 8F5, FIG. 9L: 10C5, FIG. 9M: 10H3 and FIG. 9N: 2-3F4.
as §1, with “Trypsin selectivity” for “KLK4 selectivity”, “μL trypsin (Sigma Aldrich T8003,” for “μL KLK4 (R&D Systems, 1719-SE,”, “Lot SLBM2321V, 42.0 μM stock solution in 1 mM HCl)” for “Lot MSY0116011, activated according to R&D systems protocol)”, “of 0.25” for “of 2”, “range 204-3570” for “range 510-3570”

Measured: IC50

T1 sequence (P00760 24-246): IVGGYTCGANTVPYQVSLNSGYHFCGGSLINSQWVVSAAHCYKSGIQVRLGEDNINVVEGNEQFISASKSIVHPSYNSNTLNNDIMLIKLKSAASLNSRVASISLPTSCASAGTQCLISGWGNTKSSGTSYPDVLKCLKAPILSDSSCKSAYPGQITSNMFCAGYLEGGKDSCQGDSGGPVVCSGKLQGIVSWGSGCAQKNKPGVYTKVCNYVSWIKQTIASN
human KLK4, sequence (Q9Y5K2 31-254 limits assumed): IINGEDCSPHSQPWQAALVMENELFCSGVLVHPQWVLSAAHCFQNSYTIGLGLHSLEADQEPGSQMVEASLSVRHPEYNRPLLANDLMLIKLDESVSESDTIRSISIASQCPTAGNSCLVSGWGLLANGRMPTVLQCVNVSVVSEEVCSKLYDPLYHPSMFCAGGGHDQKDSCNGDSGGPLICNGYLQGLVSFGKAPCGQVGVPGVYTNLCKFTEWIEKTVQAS
human KLK1, sequence (P06870 25-262 limits assumed): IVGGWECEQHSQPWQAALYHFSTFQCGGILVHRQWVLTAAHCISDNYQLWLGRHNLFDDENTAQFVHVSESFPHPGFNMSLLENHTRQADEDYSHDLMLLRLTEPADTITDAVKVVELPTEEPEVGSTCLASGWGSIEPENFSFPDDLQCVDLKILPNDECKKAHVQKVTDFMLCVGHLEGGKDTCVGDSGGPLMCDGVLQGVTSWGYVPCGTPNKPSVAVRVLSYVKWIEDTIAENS
human KLK7, sequence (P49862 30-253 limits assumed): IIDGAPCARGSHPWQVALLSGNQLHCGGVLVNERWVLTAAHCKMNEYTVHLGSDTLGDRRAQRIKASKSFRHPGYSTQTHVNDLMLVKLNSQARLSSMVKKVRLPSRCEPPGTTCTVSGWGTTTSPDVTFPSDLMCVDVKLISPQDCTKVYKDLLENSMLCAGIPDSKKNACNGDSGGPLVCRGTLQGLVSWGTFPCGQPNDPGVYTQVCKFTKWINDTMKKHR

B1: 2B11 (antibody, V domains shown)
VH: QSVKESEGGLFKPTDTLTLTCTVSGFSLINYGVSWVRQAPGKGLEWIGYIGSAGSTYYATWAKSRATITRNTNLNTVTLKMTSLTAADTATYFCARAAYSAGSADAEDIWGPGTLVTVSS
VL: AYYMTQTPASVEAAVGGTVTIKCQASQSISNYVAWYQQKPGQPPKLLIYRASTLASGVSSRFSGSGSGTEFTLTISDLECADAATYYCHQGYSSSNVDNIFGGGTEVVVK
> 100 nM: [1] | [2] | [3] | [4]

B2: 8F5 (antibody, V domains shown)
VH: QSVKESEGGLFKPTDTLTLTCTVSGFSLSSYPISWVRQAPGNGLEWIGYITSEYGVAYYATWAESRSTITRNTNLNTVTLKMTSLTAADTATYFCVRENPTYGYAYDAWGPGTLVTVSS
VL: AYDLTQTPASVEAAVGGTVTINCQASESIGNELSWYQQKSGQPPKLLIYQASTLASGVPSRFKGSGSGTDFTLTISDLECADAATYYCAQGFSSSGVENVFGGGTEVVVK
> 100 nM: [1] | [2] | [3] | [4]

B3: 10C5 (antibody, V domains shown)
VH: QSLEESGGGLVKPTDTLTLTCTVSGFSLSSYGVTWVRQAPGRGLEWIGYITSNYGVSYYASWAKSRSTITRNTNLNTVTLKMTSLTAADTATYFCARENPDYGYAYDAWGPGTLVTVSV
VL: B2 VL with L4M, V11L, G30S, S40P, K45D, Q50Y, D70E, S93G
notes: Rabbit monoclonal; also called Chimeric 10C5; KLK5.10C5 (complex sample)
> 100 nM: [1] | [2] | [3] | [4]

B4: 2-3F4 (antibody, V domains shown)
VH: QSVEESRGGLIKPTDTLTLTCTASGFSLSNYGVSWVRQAPGNGLEYIGFIGYGGSTYYASWAKSRSTITRNTNLNTVTLQMTSLTAADTATYFCARLCGVDCADALDSWGPGTLVTVSS
VL: AYYMTQTPASVEVAVGGTVTIKCQASEDIGSYCSWYQQKPGQPPKLLIYDASDLASGVPSRFKGSGSGTDFTLTISGVQCDDAATYYCQQDYTGNNVDNTFGGGSEVVVK
> 100 nM: [1] | [2] | [3] | [4]

B5: 9B6 (antibody, V domains shown)
VH: QSVKESEGGLFKPTDNLTLTCTVSGFSLSNYGVTWVRQAPGNGLEYIGFIGSGGSAYYASWAKSRSTITRNTNLNTVTLKMTSLTAADTATYFCARDDVGGGKSLDIWGPGTLVTVSS
VL: NIVMTQTPASVEVAVGGTVVIKCQASQNIGDYLSWYQQKPGQRPKLLIYSASTLASGVPSRFKGSGSGTQFTLTISDLECADAATYYCHQDYTSNDVENTFGGGTEVVVK
> 100 nM: [1] | [2] | [3] | [4]

B6: 9H3 (antibody, V domains shown)
VH: B5 VH with N16T, N30G, T34S, N42K, S83R, D98N, G102D, K103M
VL: DIVMTQTPASVSEPVGGTVTIKCQASQNINNYLSWYQQKPGQPPKQLIYAASTLASGVPSRFKGSGSGTQFTLTISDLECADAATYYCHQDYTSNNVDNTFGGGTEVVVK
> 100 nM: [1] | [2] | [3] | [4]

B7: 10C8 (antibody, V domains shown)
VH: B5 VH with N30S, T34S, S55F, K103R, L113V
VL: NIVMTQTPASVEVAMGGTVIIKCQASQSISTYLSWYQQKPGQPPKLLIYSASTLASGVSSRFEGSGSGTQFTLTISGVQCADAATYYCHQDYTSNNVDNTFGGGTEVVVK
> 100 nM: [1] | [2] | [3] | [4]

B8: 9H5 (antibody, V domains shown)
VH: B5 VH with N30S, T34S, S55F, L113V, S118V
VL: NIVMTQTPASVEAAVGGTVTINCQASQSISSYLSWYQQKSGQRPKLLIFSASTLASGVPSRFTGSGSGTQFTLTISDLQCADAATYYCHQDYTSSNVDNTFGGGTEVVVK
notes: Rabbit monoclonal; also called Chimeric 9H5; KLK5.9H5 (complex sample)
> 100 nM: [1] | [2] | [3] | [4]

B9: 9F2 (antibody, V domains shown)
VH: B5 VH with N30S, T34S, A56P
VL: B5 VL with V20I, N28S, G30S, D31N, Q37H, P40S, K45R, D96S, E98D
> 100 nM: [1] | [2] | [3] | [4]

B10: 8B7 (antibody, V domains shown)
VH: B5 VH with G53S
VL: B5 VL with V20T, N28S, D31S, R43P, S50D, T53N, T74S, D96N, E98D, V109I
> 100 nM: [1] | [2] | [3] | [4]

B11: 10H3 (antibody, V domains shown)
VH: QSVKESEGGLIKPTDTLTLTCTVSGFSLSTFAINWVRQAPGNGLEWIGAIGRGGSAYYASWAKSRSTITKNTNLNTVTLKMTRPTAADTATYFCARENAGSGWGELDIWGPGTLVTVSS
VL: AYEMTQTPASVEVAVGGTVTINCQASESISSDLAWYQQKPGQRPKLLIYAASTLASGVPSRFKGSGSGTEFTLSISGVQCADAATYYCQQGYTWNNVDNVFGGGTEVVVK
notes: also called KLK5.10H3 (complex sample)
> 100 nM: [1] | [2] | [3] | [4]

B12: 3-3F5 (antibody, V domains shown)
VH: QSVKESEGGLFKPTDTLTLTCTVSGFSLNDYGVSWVRQAPGNGLEWIGAIGSSGVAWYANWAKGRSTITRNTNLNTVTLKMASLTAADTATYFCARDRDYGYRADDATSGMDLWGPGTLVTVSS
VL: AYDMTQTPASVEAAVGGTVTIKCQASESIGNALAWYQQKPGQPPKLLIYDASDLASGVPSRFKGSGSGTQFTLTISGVECADAATYYCQQGDSHNNVDNIFGGGTEVVVK
notes: Rabbit monoclonal; also called Chimeric 3-3F5
> 100 nM: [1] | [2] | [3] | [4]
